Data as given in the nanobody polyreactivity screen of Harvey et al. (2022).

Assay: yeast display, Sf9 membrane polyspecificity reagent, FACS + sequencing; frameworks hold sequencing errors
Method in brief: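 A nanobody's polyreactivity label depends on the gate it was sorted from. Yeast display cells were stained with 10% biotinylated, detergent-solubilized Sf9 membrane reagent for 1 hour at 4 °C, enriched on streptavidin microbeads and sorted by FACS. The low and high (top ~1%) gates were set on anti-HA fluorescence for expression and streptavidin fluorescence for reagent binding.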

Sequence | polyreactivity (PSR sort gate)
QVQLVESGGGLVQAGGSLRLSCAASGRIFYPYAMGGYRQAAGKEREFVAAISSGVSTNYADSVTGRFTISRDNATTTVYLQMNSLKPEDTAVYYCARSYFRYASSYYQAVSHGYSGQGTQVTVSS | high polyreactivity
QVQLVESGGGLVQAGGSLRLSCAASGRIFYPYAMGWYRQAPGKERELVAAISGSGARTYYADSVKGRFTISRDNAKHTVYLQMNSLKPEDTAVYYCARYQSNSDDYWGQGTQVTVSS | high polyreactivity
QVQLVESGGGLVQAGGSLRLSCAASGRIFYPYAMGWYRQAPGKERELVAAITSDGGSTYYADSVKGRFTISRDNAKNTVYLQMNSLKPEDTAVYYCAAYEAYKANVGGGYYYWGQGTQVTVSS | low polyreactivity
QVQLVESGGGLVQAGGSLRLSCAASGRIFYPYAMGWYRQAPGKESEFVAAIRWSSGSTYYADSVKGRFTISRDNAKNTVYLQMNSLKPEDTAVYYCAAEGYDSYSYDYWGQGTQVTVSS | high polyreactivity
QVQLVESGGGLVQAGGSLRLSCAASGRIFYPYAMGWYRQAPGQERELVAVINGSGGSTYYADSVKGRFTISRDNAKNTVYLQMNSLKPEDTAVYYCAAVGAYSRNEYDYWGQGTQVTVSS | high polyreactivity
QVQLVESGGGLVQAGGSLRLSCAASGRIFYPYVMGWYRQAPGKERELVAAITGGGSTYYADSVKGRFTISRDNAKNTVYLQMNSLKPEDTAVYYCAKRSYGDRDERYDSWGQGTQVTVSS | low polyreactivity
QVQLVESGGGLVQAGGSLRLSCAASGRIFYQNVMGWYRQAPGKERELVAAITTSGGRTYYADSVKGRFTISRDNAKNTVYLQMNSLKPEDTAVYYCAAKASNRGYYYWGQGTQVTVSS | high polyreactivity
QVQLVESGGGLVQAGGSLRLSCAASGRIFYQYAMGWYRQAPGKERELVAAIRYRDDGTYYADSVKGRFTISRDNAKNTVYLQMNSLKPEDTAVYYCAAKQWGRYGFWGQGTQVTVSS | high polyreactivity
QVQLVESGGGLVQAGGSLRLSCAASGRIFYRNAMGWYRQAPGKERELVAAIRGGDNTYYADSVKGRFTISRDNAKNTVYLQMNSLKPEDTAVYYCAARSYRLDSYYWGQGTQVTVSS | high polyreactivity
QVQLVESGGGLVQAGGSLRLSCAASGRIFYRNAMGWYRQAPGKERELVAAISRRGGSTSYADSVKGRFTISRDNANNTVYLQMNSLKPEDTAVYYCAASRFRTGQEDDYWGQGTQVTVSS | high polyreactivity
QVQLVESGGGLVQAGGSLRLSCAASGRIFYRYAMGGYRQAPGKERELVASITTSGDSTYYADSVKGRFTISRDNAKNTVYLQMNSLKPEDTGVYYCAASSYRGRRYDYWGQGTQVTVSS | high polyreactivity
QVQLVESGGGLVQAGGSLRLSCAASGRIFYRYAMGWYRPAPGKERELVATITGRGGSTYYADSVKGRFTISRDNAKNTVYLQMNSLKPEDTAVYYCATTRSVSYPYDGSYYWGQGTQVTVSS | high polyreactivity
QVQLVESGGGLVQAGGSLRLSCAASGRIFYRYAMGWYRQAPGKEREFVAAISGTGGSTYYADSVKGRFTISRDNAKNTVYLQMNSLKPEDTAVDYCAASVVSRPTYYAYYYWGQGTQVTVSS | high polyreactivity
QVQLVESGGGLVQAGGSLRLSCAASGRIFYRYAMGWYRQAPGKERELVAAINDGGSTYYADSVKGRFTISRDNAKNTVYLQMNSLKAEDTAVYYCNVVNEHQSDFVVPFDYNHWGQGTQVTVSS | low polyreactivity
QVQLVESGGGLVQAGGSLRLSCAASGRIFYRYAMGWYRQAPGKERELVAAIRYSGGRTYYADSVKGRFTISRDNAKNTVYLQMNSLKPEDTAVYYCAADGQWYYAPFRGGDYENDYWGQGTQVTVSS | low polyreactivity
QVQLVESGGGLVQAGGSLRLSCAASGRIFYRYAMGWYRQAPGKERELVAAITGSVGSTYYADSVKGRFTISRDNAKNTVYLQMNSLKPEDTAVYYCAREYHGDSRRYDYWGQGTQVTVSS | high polyreactivity
QVQLVESGGGLVQAGGSLRLSCAASGRIFYRYAMGWYRQAPGKERELVAAITYSGSSTYYADSVKGRFTISRDNAKNTVYLQMNSLKPEDTAVYYCAARFQSTNGHKYYYWGQGTQVTVSS | high polyreactivity
QVQLVESGGGLVQAGGSLRLSCAASGRIFYRYVMGWYREAPGKERELVAAIRNSGGSTYYADSVKGRFTISRDNAKNTVYLQMNSLKPEDTAVYYCAKRYGTSFYVGSAKIGYDYWGQGTQVTVSS | high polyreactivity
QVQLVESGGGLVQAGGSLRLSCAASGRIFYSNTMGWYRQAPGKERELVAAISRSGGRTYYADSVKGRFTISRDNAKHTVYLQMNSLKPEDTAVYYCNTAYYRNPYYKGYYWGQGTQVTVSS | high polyreactivity
QVQLVESGGGLVQAGGSLRLSCAASGRIFYSYAMGGYRQAPGQERELVAAIDESDGSTYYADSVKGRFTISRDNATNTVYLQLNSLKPDDTAVYYSAADSLLVLFDYWGQGTQVTVSS | low polyreactivity
QVQLVESGGGLVQAGGSLRLSCAASGRIFYSYAMGWSRQAPGKERELVAAISFSVGSTYYADSVKGRFTISRDNAKNSVYLQMNSLKPEDTAVYYCAASLGFPGYEYWGQGTQVTVSS | low polyreactivity
QVQLVESGGGLVQAGGSLRLSCAASGRIFYSYAMGWYRQAPGKERELVAAITRGGSTSYADSVKGRFTISRDNAKNTVYLQMNSLKPEDTAVYYCATRQFYSYWKYYYWGQGTQVTVSS | high polyreactivity
QVQLVESGGGLVQAGGSLRLSCAASGRIFYSYAMGWYRQAPGKERELVATISRRGGSTYYADSVKGRFTISRDNAKITVYLQMNSLKPEDTAVYYCNKGIPTRSVRSYDYWGQGTQVTVSS | high polyreactivity
QVQLVESGGGLVQAGGSLRLSCAASGRIFYSYAMGWYRQAPGKESELVAAIRSTGSTNYADSVKGRFTISRDNAKNTVYLQMNSLKPEDTAVYYCAARTSYRSSLFGYWGQGTQVTVSS | high polyreactivity
QVQLVESGGGLVQAGGSLRLSCAASGRIFYSYTMGWYRQAPGKERELVAGINRSVGSTYYADSVKGRFTISRDNAKNTVYLQMNSLKPEDTAVYYCAAGSRRRSYYTFSSVHGHYYWGQGTQVTVSS | high polyreactivity
QVQLVESGGGLVQAGGSLRLSCAASGRIFYSYVMGWYRQAPGKDRELVGAITRSGGTTYYADSVMGRFTISRDNANNPVYLQMNSLKPEDTAVYYCATRSIFNGYGYYHPYNFWGQGTQVTVSS | high polyreactivity
QVQLVESGGGLVQAGGSLRLSCAASGRIFYTNAMGWSRQAPGKERELVAVISWGGDTTYYADSVKGRFTISRDNAKNTVYLQMNSLKPEDTAVYYCNADWGPTYEIYDSWGQGTQVTVSS | low polyreactivity
QVQLVESGGGLVQAGGSLRLSCAASGRIFYTNAMGWYRQAPGKERELVAAIDYSDSTTYYADSVKGRFTISRDNAKNTVYLQMNSLKPEDTAVYYCAAESYLYTVTFEYWGQGTQVTVSS | high polyreactivity
QVQLVESGGGLVQAGGSLRLSCAASGRIFYTNAMGWYRQAPGKERELVAVISWGGDTTYYADSVKGRFTISRDNAKNTVYLQMNSLKPEDTAVYYCKADWGPTYEIYDSWGQGTQVTVSS | low polyreactivity
QVQLVESGGGLVQAGGSLRLSCAASGRIFYTYAMGWYRPAPGKERELVAAITYRGGSTYYADSVKGRFTISRDNAKNTVYLQMNSLKPEDTAVYYCAGRPGRGPDSRWRYKYDYWGQGTQVTVSS | high polyreactivity
